Experimental data published in publication PMC5789848, “HTLV-1 Tax plugs and freezes UPF1 helicase leading to nonsense-mediated mRNA decay inhibition”.

What was measured:
UPF1-HD [1] = molecular target: T1, UPF1-HD (Homo sapiens, UniProt Q92900-2 295-914); assay: pull-down; 200 mM NaCl; BLI: 20 mM HEPES pH 7.5, 150 mM K acetate, 2 mM Mg acetate, 1 mM DTT, 6.3% glycerol, 0.1% NP-40; EMSA: 20 mM MES pH 6.0, 150 mM K acetate, 2 mM DTT, 0.2 ug/ul BSA, 6% glycerol, 30 C; pull-down: BLI-like buffer, 30 C then 4 C, 200 mM NaCl wash; conditions: protein: recombinant; tags: C-terminal His6 (CBP N-terminal and/or His6 per Methods); label: 3' biotin (BtnTg); single strand
T1 sequence: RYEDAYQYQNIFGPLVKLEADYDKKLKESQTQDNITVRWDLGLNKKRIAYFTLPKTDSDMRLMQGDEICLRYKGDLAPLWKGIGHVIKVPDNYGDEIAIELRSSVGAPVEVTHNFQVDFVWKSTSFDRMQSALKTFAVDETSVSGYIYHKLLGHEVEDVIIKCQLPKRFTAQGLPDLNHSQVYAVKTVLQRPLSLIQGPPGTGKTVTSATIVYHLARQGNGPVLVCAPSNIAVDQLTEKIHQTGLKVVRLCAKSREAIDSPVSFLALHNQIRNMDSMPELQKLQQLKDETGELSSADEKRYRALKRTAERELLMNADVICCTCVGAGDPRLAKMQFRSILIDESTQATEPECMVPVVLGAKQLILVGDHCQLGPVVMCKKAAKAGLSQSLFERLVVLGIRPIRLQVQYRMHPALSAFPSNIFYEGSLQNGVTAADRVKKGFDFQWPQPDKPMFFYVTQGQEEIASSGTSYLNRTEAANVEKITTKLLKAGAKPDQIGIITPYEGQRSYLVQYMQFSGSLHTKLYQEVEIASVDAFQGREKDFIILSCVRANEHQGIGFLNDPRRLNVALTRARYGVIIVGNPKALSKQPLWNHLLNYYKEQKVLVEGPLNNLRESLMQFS

UPF1-HD [2] = molecular target: T1, UPF1-HD; assay: EMSA; UPF1-HD 0-10 nM, RNA 1 nM; BLI: 20 mM HEPES pH 7.5, 150 mM K acetate, 2 mM Mg acetate, 1 mM DTT, 6.3% glycerol, 0.1% NP-40; EMSA: 20 mM MES pH 6.0, 150 mM K acetate, 2 mM DTT, 0.2 ug/ul BSA, 6% glycerol, 30 C; pull-down: BLI-like buffer, 30 C then 4 C, 200 mM NaCl wash; conditions: protein: recombinant; tags: C-terminal His6 (CBP N-terminal and/or His6 per Methods); label: 32P; single strand

## CGUCCAUCUGGUCAUCUAGUGAUAUCAUCG (ssRNA) [30-mer ssRNA 3'-biotin (pull-down)]
UPF1-HD [1]
  binding result: binds

## CGUCCAUCUGGUCAUCUAGUGAUAUCAUCG (ssRNA) [30-mer ssRNA (EMSA)]
UPF1-HD [2]
  binding result: binds
